Experimental data taken from patent US20150004637A1, “SYSTEMS AND METHODS FOR IMAGING AT HIGH SPATIAL AND/OR TEMPORAL PRECISION” (President and Fellows of Harvard College, priority 2011, published 2015).
Where two headings read alike, the source gives them in different places.

Assays:
HEK cells [1] = experiment: Step response of fluorescence to membrane potential steps; assay type: cell-based; conditions: for Approx response time: Table 2, described herein; for τresponse: determined from step-response
Protocol: The step response was measured in a similar manner, except that test waveforms consisted of a series of voltage pulses, from −70 mV to +30 mV with duration 300 ms and period 1 s. Cells were subjected to 20 repetitions of the waveform, and the fluorescence response was averaged over all iterations.

[2] = Relative photostability of Arch and eGFP (photobleaching of Arch-eGFP fusion); assay type: physicochemical; conditions: measured in a 1:1 fusion with eGFP
Protocol: (3) Relative photostability of Arch and eGFP. To perform a direct comparison of photostability of Arch and eGFP the photobleaching of the Arch-eGFP fusion was studied. This strategy guaranteed a 1:1 stoichiometry of the two fluorophores, simplifying the analysis. The experiments were performed on permeabilized cells, in the microscope, with video recording as the cells photobleached. A movie of photobleaching of Arch was first recorded under 640 nm illumination; then on the same field of view photobleaching of eGFP under 488 nm illumination was recorded, with illumination intensity adjusted to yield approximately the same initial count rate as for Arch. Fluorescence background levels were obtained from nearby protein-free regions of each movie and were subtracted from the intensity of the protein-containing regions. The area under each photobleaching timetrace was calculated, yielding an estimate of the total number of detected photons from each fluorophore. The eGFP emission (lambda-max=509 nm) and the Arch emission (lambda-max=687 nm) were collected through different emission filters, so the raw counts were corrected for the transmission spectra of the filters and the wavelength-dependent quantum yield of the EMCCD camera. The result was that the relative number of photons emitted prior to photobleaching for eGFP:Arch WT was 3.9:1, and for eGFP:ArchD95N this ratio was 10:1.

[3] = pKa of the Schiff base from absorption spectra versus pH; assay type: physicochemical; conditions: singular value decomposition on absorption spectra, pH 6-11
Protocol: FIG. 8C illustrates absorption spectra recorded on purified protein between about pH 6 and about pH 11. Singular Value Decomposition of absorption spectra between 400-750 nm was used to calculate the fraction of the SB in the protonated state as a function of pH. The result was fit to a Hill function to determine the pKa of the SB.
(2) Spectroscopic characterization of Arch WT and D95N. The absorption spectra of fractionated E. coli membranes containing Arch WT and D95N were determined using an Ocean Optics USB4000 spectrometer with a DT-MINI-2-GS light source (FIG. 8). The peak extinction coefficients of microbial rhodopsins vary across rhodopsin types from 48,000 to 63,000 M^−1 cm^−1. Due to the high homology between Arch and bacteriorhodopsin (BR), the BR extinction coefficient, 63,000 M^−1 cm^−1, was used for Arch. […] For Arch WT, 633 nm was in the tail of the absorption while for Arch D95N 633 nm lay halfway down the shoulder. The relative extinction coefficients of Arch WT and D95N at 633 nm was independent of the choice to use BR as the reference for the peak extinction coefficient. Absorption spectra for Arch WT and D95N were measured as a function of pH between pH 6 and 11.

HEK cells [4] = experiment: Frequency response and noise of membrane potential estimated from fluorescence; assay type: cell-based; conditions: for noise / accuracy of voltage estimated from fluorescence: HEK cells, after calibration with voltage ramp −150 to +150 mV; for Noise in V̂FL: frequencies f≧0.1 Hz in HEK cells
Protocol: For the data of FIG. 9, a chirped sine wave with an amplitude of about 50 mV and frequency from about 1 Hz to about 1 kHz was applied to the cell. Membrane potential VFL was determined from fluorescence and the Fourier transform of VFL was calculated. The uptick at about 1 kHz is an artifact of electronic compensation circuitry. […] The noise figures reported here are specific to our imaging system and serve primarily as an indicator of the possible sensitivity of Arch.
(8) Frequency-dependent response functions of Arch WT and D95N. Test waveforms consisted of a concatenated series of sine waves, each of duration 2 s, amplitude 100 mV, zero mean, and frequencies uniformly spaced on a logarithmic scale between 1 Hz and 1 kHz (31 frequencies total). The waveforms were discretized at 10 kHz and applied to the cell, while fluorescence movies were acquired at a frame rate of 2 kHz.
The model parameters for extracting VFL(t) were calculated from the fluorescence response to low frequency voltages. These parameters were then used to calculate an estimated voltage at all frequencies.
The applied voltage was downsampled to 2 kHz to mimic the response of a voltage indicator with instantaneous response. For each applied frequency, the Fourier transform of VFL(t) was calculated and divided by the Fourier transform of the downsampled V(t). The amplitude of this ratio determined the response sensitivity. It was important in some cases to properly compensate pipette resistance and cell membrane capacitance to obtain accurate response spectra.
The power spectrum of VFL(t) under constant V=0 was also measured to enable calculations of signal-to-noise ratio for any applied V(t).
In these examples, a measure of the performance of a voltage indicator which reported the information content of the fluorescence signal was used, including an algorithm to infer membrane potential from a series of fluorescence images. The accuracy with which the estimated membrane potential matched the true membrane potential was used (as reported by patch clamp recording) as a measure of indicator performance.
The estimated membrane potential, VFL(t), was determined from the fluorescence in two steps. First a model was trained relating membrane potential to fluorescence at each pixel. A highly simplified model that the fluorescence signal, Si(t), at pixel i and time t, is given by: […]

[5] = steps between −70 mV and +30 mV

B1: Arch D95N: Archaerhodopsin 3 with aspartic acid 95 mutated to asparagine; non-pumping voltage indicator (protein, UniProt P96787 7-258, looked up, variant D95N)
Archaerhodopsin-3: QAGYDLLGDGRPETLWLGIGTLLMLIGTFYFLVRGWGVTDKDAREYYAVTILVPGIASAAYLSMFFGIGLTEVTVGGEMLDIYYARYANWLFTTPLLLLDLALLAKVDRVTIGTLVGVDALMIVTGLIGALSHTAIARYSWWLFSTICMIVVLYFLATSLRSAAKERGPEVASTFNTLTALVLVLWTAYPILWIIGTEGAGVVGLGIETLLFMVLDVTAKVGFGFILLRSRAILGDTEAPEPSAGADVSAAD
HEK cells [1]
  response time: 41 ms
  Approx response time: 41 ms
  τresponse: 41 ms
HEK cells [1]; listed as Arch 3 D95N
  response time: 40 ms
HEK cells [1]; [5]
  fast component of step response: < 500 μs
  fraction of step response that is fast: about 20%
  time constant of slow component of step response: 41 ms
HEK cells [1]; steps between −70 mV and +30 mV, listed as ArchD95N
  fraction of step response that is fast: 20%
[2]
  Photostability relative to eGFP: 0.1
[3]
  pKa of SB: 8.9
HEK cells [4]
  noise / accuracy of voltage estimated from fluorescence: 260 μV/(Hz)^1/2
  Noise in V̂FL: 260 μV/Hz^1/2

B2: Archaerhodopsin 3 (protein)
chain: MDPIALQAGYDLLGDGRPETLWLGIGTLLMLIGTFYFLVRGWGVTDKDAREYYAVTILVPGIASAAYLSMFFGIGLTEVTVGGEMLDIYYARYADWLFTTPLLLLDLALLAKVDRVTIGTLVGVDALMIVTGLIGALSHTAIARYSWWLFSTICMIVVLYFLATSLRSAAKERGPEVASTFNTLTALVLVLWTAYPILWIIGTEGAGVVGLGIETLLFMVLDVTAKVGFGFILLRSRAILGDTEAPEPSAGADVSAAD
modifications: Halorubrum sodomense
notes: Microbial rhodopsin from Halorubrum sodomense, light-driven proton pump used as fluorescent voltage indicator; experiments used an Arch-eGFP fusion
HEK cells [1]
  time for 90% of step response: < 0.5 ms
  Approx response time: <0.5 ms
  τresponse: < 0.5 ms
[2]
  Photostability relative to eGFP: 0.25
[3]
  pKa of SB: 10.1
HEK cells [4]
  noise / accuracy of voltage estimated from fluorescence: about 625 μV/(Hz)^1/2
  Noise in V̂FL: 625 μV/Hz^1/2
HEK cells [4]; sinusoidal membrane potential, f≈1 kHz
  fluorescence oscillation amplitude retained relative to low-frequency amplitude: about 55%
HEK cells [4]; voltage clamp at constant V=0 mV, frequencies above about 10 Hz
  shot-noise limited noise floor in V̂FL: about 470 μV/(Hz)^1/2
